Article PMC9123286 (The Journal of Cell Biology, 2022)

B1: N-terminally HA-tagged Erg1 (full length) (enzyme, S. cerevisiae, UniProt P32476 1-496, looked up)
chain: MSAVNVAPELINADNTITYDAIVIGAGVIGPCVATGLARKGKKVLIVERDWAMPDRIVGELMQPGGVRALRSLGMIQSINNIEAYPVTGYTVFFNGEQVDIPYPYKADIPKVEKLKDLVKDGNDKVLEDSTIHIKDYEDDERERGVAFVHGRFLNNLRNITAQEPNVTRVQGNCIEILKDEKNEVVGAKVDIDGRGKVEFKAHLTFICDGIFSRFRKELHPDHVPTVGSSFVGMSLFNAKNPAPMHGHVILGSDHMPILVYQISPEETRILCAYNSPKVPADIKSWMIKDVQPFIPKSLRPSFDEAVSQGKFRAMPNSYLPARQNDVTGMCVIGDALNMRHPLTGGGMTVGLHDVVLLIKKIGDLDFSDREKVLDELLDYHFERKSYDSVINVLSVALYSLFAADSDNLKALQKGCFKYFQRGGDCVNKPVEFLSGVLPKPLQLTRVFFAVAFYTIYLNMEERGFLGLPMALLEGIMILITAIRVFTPFLFGELIG
notes: Erg1, squalene monooxygenase, S. cerevisiae; also called HA–Erg1; source: yeast, expressed from the endogenous ERG1 promoter (genomic) or ectopically in Δget3 cells, in lysate; not shown: HA, N-terminal, kept

Columns and labels:
Get3 D57E-TEV-GFP [1] = biological target: T1, Get3 D57E-TEV-GFP (S. cerevisiae, UniProt Q12154 1-354, D57E); assay: co-IP; lysates from Δget3 cells ectopically expressing Get3 DE-TEV-GFP and HA-tagged Erg1 full length, ΔC, Δα1 or Δα2; anti-GFP MicroBeads, no detergent, TEV elution; immunoblot, signal normalised to Get3 in the eluate and to the input
T1 construct: Get3, cytosolic ATPase of the GET pathway, S. cerevisiae; ATPase-impaired client trap variant D57E; Captured on anti-GFP beads and eluted by TEV cleavage; the oligomeric state in the lysate was not measured; also called Get3 DE; Get3 D57E (DE); source: yeast (BY4741 background), ectopically expressed, in lysate made without detergent; not shown: TEV site-GFP, C-terminal, kept
T1 sequence (looked up): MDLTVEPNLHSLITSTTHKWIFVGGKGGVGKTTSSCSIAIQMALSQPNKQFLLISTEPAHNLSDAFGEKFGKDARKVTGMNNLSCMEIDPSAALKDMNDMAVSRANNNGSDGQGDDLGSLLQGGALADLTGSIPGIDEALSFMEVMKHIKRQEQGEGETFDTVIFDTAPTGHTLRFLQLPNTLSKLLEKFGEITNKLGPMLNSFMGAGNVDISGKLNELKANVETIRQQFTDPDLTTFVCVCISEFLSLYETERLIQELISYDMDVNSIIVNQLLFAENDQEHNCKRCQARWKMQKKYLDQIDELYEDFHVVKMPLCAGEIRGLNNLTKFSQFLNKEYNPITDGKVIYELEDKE

Get3 D57E-TEV-GFP [2] = biological target: T1, Get3 D57E-TEV-GFP; assay: co-IP; lysates from cells expressing HA–Erg1 (endogenous promoter) and Get3 DE–TEV–GFP or Get3 DE FIDD–TEV–GFP; anti-GFP MicroBeads, no detergent, TEV elution; immunoblot, signal normalised to Get3 in the eluate and to the input; conditions: partners not purified

| Molecule | percent reduction of Get3 binding against full-length HA–Erg1 (Get3 D57E-TEV-GFP [1]) | fold enrichment against Get3 DE FIDD (Get3 D57E-TEV-GFP [2]) |
| --- | --- | --- |
| N-terminally HA-tagged Erg1 lacking the second predicted helix of the C-terminal hairpin (Δα2) (from UniProt P32476 1-496) (enzyme) | 95% |  |
| B1 |  | 5 fold |
